The test system of data set [1] is IFN-γ, MCP-1, B cell margination, B cell activation. As to the kind of experiment: OPTIMIZE-1 peripheral blood pharmacodynamics (cytokines/chemokines, immunophenotyping). The format is in vivo, human. As to conditions: 450 and 900 μg/kg mitazalimab. From the text: The aim with the pharmacodynamic biomarkers is to characterize changes in intratumoural and systemic immune activation associated with mode of action of mitazalimab and correlate pharmacodynamic effects with clinical response. Disease progression and treatment response will also be followed with liquid biopsies, analysing biomarkers such as Carbohydrate antigen 19-9 (CA19-9) and circulating tumour DNA (ctDNA). All biomarker analyses in blood and tumour biopsies may be exploratory in nature. All exploratory analyses were performed at a fit-for-purpose laboratory, as the data from the analyses are for scientific use and decision making only. […]
Different types of blood samples will be taken and the following pharmacodynamic biomarkers may be evaluated: • Cytokines and chemokines: Serum samples are to be analysed for levels of cytokines and chemokines involved in the immune activation of mitazalimab, including but not limited to IFN-γ, TNF-α, IL12p70, IL-6, MCP-1, IP-10, MIP-1α, MIP-1β and IL-8; e.g., using a 30-plex kit with Luminex, MSD or similar. • Immune phenotyping: Whole blood samples will be used for immunophenotyping of whole blood for quantification of immune cell populations and immune cell activation directly or indirectly involved with immune activation of mitazalimab using flow cytometry. […]

Data set [2] concerns MB49-FFX-ACQ bladder carcinoma cells. The data set can be described thus: Chemotherapy-resistant MB49-FFX-ACQ tumour model in hCD40tg mice. The format is in vivo, mouse. The settings on record: FIG. 7B/7C. The protocol:
Note: All mice were dosed with flat doses and mg/kg doses reported herein are based on an average mouse weight of 20 g (0.02 kg).
As FOLFIRINOX is composed of four individual components, it was dosed over the course of two days, for a total of three cycles. Mice first received oxaliplatin followed by irinotecan, followed the day after by folinic acid and 2 hours after that, mice were dosed with 5-fluorouracil.
Three days following the initiation of the dosing of FOLFIRINOX, mitazalimab was administered in 5% glucose (dextrose buffer) at 5 mg/kg.
The dosing regimen applied in the two efficacy studies detailing number of doses and their relation to one another is outlined in FIG. 5. […]
On day 0, ten- to twelve-week-old female hCD40tg mice were injected subcutaneously on the right hind flank with 0.4×10^6 MB49-FOLFIRINOX-ACQ in a volume of 100 μl PBS. […] Controls or antibodies were administered as outlined in Table 24, and mice were monitored shortly following each treatment to detect potential signs of toxicity. Tumor volume was measured three times weekly with a calliper and calculated as: ((width/2×length/2×height/2)×[…]). […]
Collected data was analyzed using Kaplan Meier and Log-rank (Mantel-Cox) for survival and Mann-Whitney, non-parametric, 2-tail for FACS data and tumor growth using GraphPad Prism program (*, p<0.05; **, p<0.01). […]

Data set [3] concerns advanced stage solid malignancies. The settings on record: cited from earlier work.

Like-named read-outs stand apart in the source and are kept apart here.

B1: Mitazalimab: agonistic, human monoclonal (IgG1) antibody targeting CD40 (antibody, chains of the INN, looked up, V domains shown)
VH: EVQLLESGGGLVQPGGSLRLSCAASGFTFSTYGMHWVRQAPGKGLEWLSYISGGSSYIFYADSVRGRFTISRDNSENALYLQMNSLRAEDTAVYYCARILRGGSGMDLWGQGTLVTVSS
VL: QSVLTQPPSASGTPGQRVTISCTGSSSNIGAGYNVYWYQQLPGTAPKLLIYGNINRPSGVPDRFSGSKSGTSASLAISGLRSEDEADYYCAAWDKSISGLVFGGGTKLTVL
For the molecule B1, in data set [1], the “cytokines and chemokines (IFN-γ, MCP-1) in peripheral blood” value is “increases in peripheral blood were observed”. Further, the “effect on tumour growth in chemo-resistant tumours” value in data set [2] is reported as “synergises with FOLFIRINOX”. In addition, the best response result in data set [3] (400 μg/kg intratumoural) is listed as “stable disease (SD) in one patient with renal cell carcinoma”. For the same molecule, the “patients with increases in liver enzymes or bilirubin” value in data set [3] (IV administration) is on record as 3 of 5; in data set [3] (intratumoural administration), 9 of 18. Besides, the “dose-limiting toxicities (DLTs) observed” value in data set [3] (both intratumoural: grade 3 abdominal pain, grade 3 cholecystitis) is reported as “Two”. Besides, in data set [3] (in vivo), the “maximum tolerated dose (MTD)” value is “No maximum tolerated dose (MTD) was identified”.

The values are drawn from patent US20260055200A1, “COMBINATION THERAPIES” (Alligator Bioscience AB, priority 2022, published 2026).
